According to patent publication US20250155441A1:

Legend:
[1] = molecular target: α-fetoprotein (AFP-L1), the non-fucosylated variant of AFP that should not react with Lens culinaris agglutinin A (human) (UniProt P02771); experiment: Elecsys ECL immunoassay, biotinylated protein 7 nM without pretreatment, antibody 1 µg/mL, ruthenylated anti-rabbit Fc, streptavidin beads (PBS blank 570)
[2] = molecular target: α-fetoprotein (AFP-L1), the non-fucosylated variant of AFP that should not react with Lens culinaris agglutinin A (human) (UniProt P02771); experiment: Elecsys ECL immunoassay, biotinylated protein 7 nM without pretreatment, antibody 1 µg/mL, ruthenylated anti-rabbit Fc, streptavidin beads (PBS blank 580)

Chain of α-fetoprotein (AFP-L1), the non-fucosylated variant of AFP that should not react with Lens culinaris agglutinin A (human) (P02771 19-609 limits assumed, change not shown): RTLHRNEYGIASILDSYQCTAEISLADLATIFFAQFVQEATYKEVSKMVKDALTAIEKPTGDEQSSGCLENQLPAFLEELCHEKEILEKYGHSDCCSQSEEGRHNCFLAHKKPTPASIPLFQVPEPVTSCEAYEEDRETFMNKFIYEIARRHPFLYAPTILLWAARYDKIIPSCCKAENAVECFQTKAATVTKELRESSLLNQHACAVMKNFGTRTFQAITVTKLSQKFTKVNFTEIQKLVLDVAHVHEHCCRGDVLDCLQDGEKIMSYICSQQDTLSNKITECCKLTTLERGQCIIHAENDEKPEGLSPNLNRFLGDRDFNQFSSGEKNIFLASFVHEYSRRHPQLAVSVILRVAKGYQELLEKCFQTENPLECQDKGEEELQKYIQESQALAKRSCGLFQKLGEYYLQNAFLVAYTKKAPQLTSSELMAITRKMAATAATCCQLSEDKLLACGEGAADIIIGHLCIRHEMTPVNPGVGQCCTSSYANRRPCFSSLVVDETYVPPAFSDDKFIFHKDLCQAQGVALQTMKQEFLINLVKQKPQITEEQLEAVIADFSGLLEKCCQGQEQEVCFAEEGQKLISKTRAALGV

Counts [1] [counts]	Counts [2] [counts]	Binder
724	–	mAb<AFP-L3>rRb-3C5-IgG (antibody, V domains shown) VH: QSVEESGGRLVAPGTPLTLTCTVSGIDLSTYGMGWVRQAPGKGLEYIGIIDSGSTYYANWAKGRFTISKTSTTVDLKMTSLTTEDTATYFCARDRDPSSSGYYFKMWGPGTLVTVSL VL: ALVMTQTPSSVSAAVGGTVTINCQASQSIGSYLAWYQQKPGQPPRLLIYGASNLESGVPSRFKGSGSGTEFTLTISDLECDDAATYYCQTAFYIFSSDNAFGGGTEVVVK
–	771	mAb<AFP-L3>rRb-19B12-IgG (antibody, V domains shown) VH: QSVEESGGRLVAPGTPLTLTCTVSGIDLSTYGMGWVRQAPGKGLEWIGIIGDNGSTYYANWAKGRFTISKTSTTVDLKMTSLTTEDTATYFCARDRDPSSSGYYFKMWGPGTLVTVSL VL: ALVMTQTPSSVSAAVGGTVTINCQASQSISSYLAWYQQKPGQPPKLLIFGASNLESGVPSRFKGSGSGTEFTLTISDLECDDAATYYCQTAFYIFSSDNAFGGGTEVVVK
